From article PMC7680125

Test system: Isw1 alone (Saccharomyces cerevisiae)
Assay: EMSA
Details: 35 mM Na-HEPES pH 7.8, 5 mM MgCl2, 0.1 mM EGTA, 0.02 M EDTA (so in the source), 70 mM NaCl, 0.1 mg/ml BSA, 5-8% glycerol, 40 uM 2-mercaptoethanol, 30 C, 30 min …

0N70 mononucleosome
Kd: 21.9 nM
